Measured values published in US20230340607A1 (UNIVERSITY OF PITTSBURGH OF THE COMMONWEALTH SYSTEM OF …, published 2023).

How the values were obtained:
[1] = target: T1, integrin β1 (UniProt P05556 21-798); assay: co-immunoprecipitation with anti-RAD51AP1 antibody from T47D cell lysate, immunoblot
T1 construct: also called ITGB1; integrin B1
Method: (§1) To identify the key molecules important for RAD51AP1-DYRK4 to modulate MEK signaling, the RAD51AP1 interactants were investigated with the Entrez Gene database. […] Immuno-precipitation was performed using the RAD51AP1 antibody in the T47D cells overexpressing E9-E2 or wtRAD51AP1.
(§2) Immunoprecipitation. The cells were seeded in 10 cm² dishes with 200 ng/ml for one week. After one week doxycycline treatment, doxycycline-induced T47D OE cells were freshly harvested and lysed in NETN-400 buffer ([…] Tris-HCL, pH 8.0, […] NaCl, 1 mM EDTA, and 0.5% Nonidet P-40) for 25 minutes on ice and then centrifugated for 25 minutes at 14,500 rpm. The supernatants were diluted with the same buffer without NaCl (NETN-0) to obtain a final concentration of NaCl at 150 mM and incubated with indicated antibodies for 2 hours at 4° C., and then added protein-G beads (Santa Cruz) overnight. The beads were washed three times with cell lysis buffer and the precipitated proteins were subjected to western blot analysis.

[2] = target: c-Src (UniProt P12931 2-536); assay: as above
Method: as §1, §2

T1 sequence (P05556 21-798 limits assumed): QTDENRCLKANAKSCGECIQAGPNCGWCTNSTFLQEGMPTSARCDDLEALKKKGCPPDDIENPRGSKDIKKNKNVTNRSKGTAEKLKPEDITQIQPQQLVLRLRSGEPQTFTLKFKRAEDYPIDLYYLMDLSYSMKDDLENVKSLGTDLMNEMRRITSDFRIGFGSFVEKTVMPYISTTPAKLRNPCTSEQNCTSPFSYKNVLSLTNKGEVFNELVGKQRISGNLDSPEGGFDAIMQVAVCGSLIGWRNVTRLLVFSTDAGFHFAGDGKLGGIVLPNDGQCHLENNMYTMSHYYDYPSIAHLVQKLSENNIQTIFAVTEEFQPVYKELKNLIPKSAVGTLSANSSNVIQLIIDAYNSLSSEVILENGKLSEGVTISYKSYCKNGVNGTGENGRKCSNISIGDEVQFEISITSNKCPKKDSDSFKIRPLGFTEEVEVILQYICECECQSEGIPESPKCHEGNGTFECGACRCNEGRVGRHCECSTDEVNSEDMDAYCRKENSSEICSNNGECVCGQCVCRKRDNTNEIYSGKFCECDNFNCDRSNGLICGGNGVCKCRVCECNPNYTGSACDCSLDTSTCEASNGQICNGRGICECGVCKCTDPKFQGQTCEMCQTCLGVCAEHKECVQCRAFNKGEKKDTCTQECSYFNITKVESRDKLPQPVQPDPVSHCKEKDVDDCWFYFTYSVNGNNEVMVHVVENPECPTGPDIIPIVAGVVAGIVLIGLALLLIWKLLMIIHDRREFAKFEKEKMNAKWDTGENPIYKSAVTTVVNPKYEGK

B1: RAD51AP1-DYRK4 fusion protein (E9-E2 variant) (other)
chain: MVRPVRHKKPVNYSQFDHSDSDDDFVSATVPLNKKSRTAPKELKQDKPKPNLNNLRKEEIPVQEKTPKKRMALDDKLYQRDLEVALALSVKELPTVTTNVQNSQDKSIEKHGSSKIETMNKSPHISNCSVASDYLDLDKITVEDDVGGVQGKRKAASKAAAQQRKILLEGSDGDSANDTEPDFAPGEDSEDDSDFCESEDNDEDFSMRKSKVKEIKKKEVKVKSPVEKKEKKSKSKCNALVTSVDSAPAAVKSESQSLPKKVSLSSDTTRKPLEIRSPSAESKKPKWVPPGLKWMLKSQGNVI
notes: Expressed from a doxycycline-inducible lentiviral vector in T47D cells (co-IP, western blot), or endogenous in MDAMB361 cells (western blot); also called E9-E2 protein; E9E2 fusion
B1: no binding [1]; no binding [2].
